The record followed here is patent US20210388103A1 (Takeda / Millennium, published 2021).

Experiment [1] has as its target T1, cynomolgus CD38 (cynomolgus monkey, UniProt Q5VAN0 1-301). Briefly: cell-based or functional assay.
The target in another experiment is T2, human CD38 (human, UniProt P28907 1-300).
T2 construct: In the assays: on CHO-K1 cells transfected with full-length human CD38 cDNA, on human blood lymphocytes, RBCs, cell lines and tissue sections; also called human CD38 antigen
Description: binding to CHO cells expressing human CD38; CHO cells expressing human CD38.

The target in experiment [2] is T1, cynomolgus CD38. Briefly: binding to monkey lymphocytes; method not described; monkey lymphocytes, not CHO cells.
Experiment [3] has as its target T1, cynomolgus CD38. Description: flow cytometry on CHO cells expressing cynomolgus monkey CD38; CHO cells expressing monkey CD38.

T1 sequence (Q5VAN0 whole entry): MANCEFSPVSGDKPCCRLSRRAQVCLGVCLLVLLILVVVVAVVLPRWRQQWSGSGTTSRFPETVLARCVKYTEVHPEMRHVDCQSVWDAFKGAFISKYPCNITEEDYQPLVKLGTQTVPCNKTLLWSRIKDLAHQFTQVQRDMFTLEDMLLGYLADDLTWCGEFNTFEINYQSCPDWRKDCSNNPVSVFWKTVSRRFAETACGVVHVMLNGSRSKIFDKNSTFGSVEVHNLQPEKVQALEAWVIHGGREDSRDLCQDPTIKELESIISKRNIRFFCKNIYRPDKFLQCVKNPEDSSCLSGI

B1: AB79 (antibody, human IgG1, lambda, V domains shown)
VH: EVQLLESGGGLVQPGGSLRLSCAASGFTFDDYGMSWVRQAPGKGLEWVSDISWNGGKTHYVDSVKGQFTISRDNSKNTLYLQMNSLRAEDTAVYYCARGSLFHDSSGFYFGHWGQGTLVTVSS
VL: QSVLTQPPSASGTPGQRVTISCSGSSSNIGDNYVSWYQQLPGTAPKLLIYRDSQRPSGVPDRFSGSKSGTSASLAISGLRSEDEADYYCQSYDSSLSGSVFGGGTKLTVLG
notes: Fully human IgG1 monoclonal antibody; Used unlabelled, Alexa Fluor conjugated or biotinylated, depending on the assay; also called TAK 079
For the molecule B1, the “cytolysis of NK cells in monkey whole blood in vitro, mean EC50” value in the experiment with cynomolgus CD38 [1] worked out at 29.6 nM. Further, the values for the Kd with human CD38 and with cynomolgus CD38 [2] were 0.7 nM and 4 nM, respectively. For the same molecule, the EC50 with cynomolgus CD38 [3] turned out to be 4.5 nM.

For orientation: Kd means the constant that tells how readily two partners part at equilibrium. What is called EC50 is the concentration needed to bring the measured effect to its halfway point.
